Measured values as given in the supplement of paper PMC9170038.

Test system: MS2 coat protein
Assay: apparent KD of MS2 coat protein; designed switch direction (-1 OFF switch, 1 ON switch): -1; higher = weaker reporter binding
Procedure, shortened: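 An oligonucleotide input, 200 uM small-molecule ligand, or no input was present during titration of SNAP-549-labelled MS2 coat protein, which was doubled from 0.7 or 1.5 nM to 3 µM. Designed RNA switches had been transcribed on Illumina chips by stalled E. coli RNA polymerase. Apparent KD per design is the median over clusters of curves fitted to normalised cluster fluorescence.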

[1] = Eterna round: R95, input ligand: FMN 200 uM
[2] = Eterna round: R95, input ligand: microRNA oligo, concentration not stated
[3] = Eterna round: R95, input ligand: none
[4] = input ligand: microRNA oligo, concentration not stated

Sequence: GUCCUACAUGAGGAUCACCCAUGUGAGGAUAUGGUUUCGCUGGCCGUAGCCAGUGGAACCAGAAGGCGCAUGAU [Mat - Exclusion 1 - JL Mod - D1] (Eterna round: R97, puzzle: Exclusion 1)
- apparent KD of MS2 coat protein (input ligand: FMN 200 uM): 0.106 µM
- apparent KD of MS2 coat protein (input ligand: none): 0.0259 µM

Sequence: CUGUACUGAGGAUAUACAUGAGGAUCACCCAUGUGAUCUAGUGCACGCGUACGUGUACGUAGAAGGCAGUACAG [Mat - Exclusion 3 - Eli Mod - D38] (Eterna round: R97, puzzle: Exclusion 3)
- apparent KD of MS2 coat protein (input ligand: FMN 200 uM): 0.792 µM
- apparent KD of MS2 coat protein (input ligand: none): 0.0565 µM

Sequence: GGCGCCUGAGGAUAUCAGUCUGGAUCAGAAAAGAUCCUGACUGAGAAGGCACAUGAGGAUCACCCAUGUUCGCC [Mat - Exclusion 4 - Eli Mod - D51] (Eterna round: R97, puzzle: Exclusion 4)
- apparent KD of MS2 coat protein (input ligand: FMN 200 uM): 0.0145 µM
- apparent KD of MS2 coat protein (input ligand: none): 0.0147 µM

Sequence: UCCUGACAUGAGGAUCACCCAUGUGAGGAUAUGUGGUUCGGGUCAACUCCCGUUCCGUGCAGAAGGCACAGGGC [EX1 A.29] (Eterna round: R97, puzzle: Exclusion 1)
- apparent KD of MS2 coat protein (input ligand: FMN 200 uM): 0.0264 µM
- apparent KD of MS2 coat protein (input ligand: none): 0.0162 µM

Sequence: GGAGCGAUUCUCUUAGUUAACAUGAGGAUCACCCAUGUGUACAAGCUCUUAUUUUGCUCGUCUUACCGAGAGUUGCC [Tienve] (puzzle: Sensor v3, turn-off variant 1)
- apparent KD of MS2 coat protein [1]: 0.0226 µM
- apparent KD of MS2 coat protein [2]: 0.0743 µM
- apparent KD of MS2 coat protein [3]: 0.0247 µM

Sequence: UUCCUCAUAACAUGAGGAUCACCCAUGUAUUAUUUGGUAACUGAGGAUAUACUUUUAAUGUUUAUGUAGAAGGCAGAUACAGUU [JR_ExcNG3_Sub017] (Eterna round: R96, puzzle: Exclusion NG 3)
- apparent KD of MS2 coat protein (input ligand: FMN 200 uM): 0.165 µM
- apparent KD of MS2 coat protein [4]: 0.0804 µM
- apparent KD of MS2 coat protein (input ligand: none): 0.109 µM

Sequence: CCAUCGUGUGUGAGGAUAUGCUGGACCUUGGUUCAGCAGAAGGCACAUGAGGAUCACCCAUGUGAAUACGGUGG [Mat - Exclusion 4 - JL Mod - D90] (puzzle: Brourd's mod of Exclusion 4)
- apparent KD of MS2 coat protein [2]: 0.0161 µM

Sequence: GAUUGACAUGAGGAUCACCCAUGUGAGGAUAUCGGCCGGACCGUGCUGGCUUCCGUCGCGAGAAGGCGCAUAGG [Exclusion 1 V41] (puzzle: Exclusion 1)
- apparent KD of MS2 coat protein [1]: 0.0782 µM
- apparent KD of MS2 coat protein [2]: 0.0355 µM
- apparent KD of MS2 coat protein [3]: 0.0389 µM

Sequence: CUUUAGUGAGGAUAUCGGUAGUAAUACAAUAGUAUUACUACUGAGAAGGCACAUGAGGAUCACCCAUGUUCCUC [Mat - Exclusion 4 - Mod of Omei - D82] (Eterna round: R96, puzzle: Exclusion 4)
- apparent KD of MS2 coat protein (input ligand: FMN 200 uM): 0.259 µM
- apparent KD of MS2 coat protein [4]: 0.0253 µM
- apparent KD of MS2 coat protein (input ligand: none): 0.0299 µM

Sequence: UAAUUCGUAGGAUAUACAAAGGGAGAAUGAUUGCGGUCCUGACAUGAGGAUCACCCAUGUAGAAGGAUGAGGGU [Eternabot (L1) Solution 41] (Eterna round: R97, puzzle: Exclusion 2)
- apparent KD of MS2 coat protein (input ligand: FMN 200 uM): 0.0919 µM
- apparent KD of MS2 coat protein (input ligand: none): 0.0886 µM

Sequence: GUGAAACAUGAGGAUCACCCAUGUGAGGAUAUGAUUUAGUAAUGAUGAAAGUAAAUAUUCAGAAGGCACAAUGG [Mat - Mod of JL D71] (puzzle: Exclusion 1)
- apparent KD of MS2 coat protein [1]: 0.0742 µM
- apparent KD of MS2 coat protein [2]: 0.0927 µM
- apparent KD of MS2 coat protein [3]: 0.0902 µM

Sequence: AUAAUGUAAGGAUAUCAGUCGUACAGCUGCGGCUGUACGACUGAGAAGGUACAUGAGGAUCACCCAUGUGAUCA [E4/8-A3] (Eterna round: R97, puzzle: Exclusion 4)
- apparent KD of MS2 coat protein (input ligand: FMN 200 uM): 0.104 µM
- apparent KD of MS2 coat protein (input ligand: none): 1.38 µM

Sequence: AAGAAACAUGAGGAUCACCCAUGUGAGGAUAUGAAAAAGAAAAGAAAAGAAAGAAGCAUCAGAAGGCACAAAGG [salish99-ex1_r3_026] (puzzle: Exclusion 1)
- apparent KD of MS2 coat protein [1]: 0.0361 µM
- apparent KD of MS2 coat protein [2]: 0.0321 µM
- apparent KD of MS2 coat protein [3]: 0.0311 µM

Sequence: CAUGUCCAACGAGGAUAUGGGAAAGGAAGUGUACCAGAAGGCGUACGGACAUGAGGAUCACCCAUGUCGCGCGGCGCGAUGUGG [PowerStrip EXNG 1.1] (Eterna round: R96, puzzle: Exclusion NG 1)
- apparent KD of MS2 coat protein (input ligand: FMN 200 uM): 0.0476 µM
- apparent KD of MS2 coat protein [4]: 0.0283 µM
- apparent KD of MS2 coat protein (input ligand: none): 0.0415 µM

Sequence: CUCUCUCAUGUGAGGAUAUCGAGGCAGUCCGCAAACGAGAAGGUACAUGAGGAUCACCCAUGUCAACAGUAAUG [BmEX4 C.8] (Eterna round: R97, puzzle: Brourd's mod of Exclusion 4)
- apparent KD of MS2 coat protein (input ligand: FMN 200 uM): 0.143 µM
- apparent KD of MS2 coat protein (input ligand: none): 0.033 µM

Sequence: CUCUAGUCAGGAUAUCACGUUUACCGUGCACUCACAAAGCCUGAGAAGGGACUUGAGGAUCACCCAAGUGGGAA [Reedbequ] (Eterna round: R97, puzzle: Exclusion 4)
- apparent KD of MS2 coat protein (input ligand: FMN 200 uM): 0.211 µM
- apparent KD of MS2 coat protein (input ligand: none): 0.231 µM

Sequence: UUCAUGUGAGGAUAUUAGUAGUAAAUAAAUAAAAUUAUUACUGAGAAGGUACAUGAGGAUCACCCAUGUUCCUU [Salish 062 v22] (Eterna round: R97, puzzle: Exclusion 4)
- apparent KD of MS2 coat protein (input ligand: FMN 200 uM): 0.0185 µM
- apparent KD of MS2 coat protein (input ligand: none): 0.0139 µM

Sequence: ACAAGCUUUUAGAUUUUCAACAUGAGGAUCACCCAUGUUCGUCUUAGGCUAGUGCGAGUGCGGUGUACUCGUAUUAG [JL TOV1 3.84 sellena mod] (Eterna round: R97, puzzle: Sensor, turn-off variant 1)
- apparent KD of MS2 coat protein (input ligand: FMN 200 uM): 0.0182 µM
- apparent KD of MS2 coat protein (input ligand: none): 0.0164 µM

Sequence: GUACUCGGAUGACAGUCCGACAUGAGGAUCACCCAUGUUUCAUUAAGGUCGUUGCUCGUCAAACAUCACUCAACCAG [Eternabot (L1) Solution 35] (Eterna round: R97, puzzle: Sensor, turn-off variant 1)
- apparent KD of MS2 coat protein (input ligand: FMN 200 uM): 0.0432 µM
- apparent KD of MS2 coat protein (input ligand: none): 0.0515 µM

Sequence: GAUGUGGGUUUCCGGAGUAACAUGAGGAUCACCCAUGUAGAAGUUGGAGGGAUCAAGCUUUUUGGUCGUCACACGUG [JR_SV3TOV1_Sub053] (puzzle: Sensor v3, turn-off variant 1)
- apparent KD of MS2 coat protein [1]: 0.213 µM
- apparent KD of MS2 coat protein [2]: 0.227 µM
- apparent KD of MS2 coat protein [3]: 0.306 µM

Sequence: GCAGCAUAGUCCAAAUAGGACAUACAUGAGGAUCACCCAUGUCAGGAUAUGGUCUGGAUUACAGGCCAGAAGGGACAAAGCUGC [Eli exng3 - 001] (Eterna round: R96, puzzle: Exclusion NG 3)
- apparent KD of MS2 coat protein (input ligand: FMN 200 uM): 0.0304 µM
- apparent KD of MS2 coat protein [4]: 0.0223 µM
- apparent KD of MS2 coat protein (input ligand: none): 0.0279 µM

Sequence: GUGACACAUGAGGAUCACCCAUGUGAGGAUAUGAUACUAUGUACUUCGGUACAUAGUAUCAGAAGGCACAGUGA [Ex1-3: 7] (puzzle: Exclusion 1)
- apparent KD of MS2 coat protein [2]: 0.0432 µM

Sequence: GCGCGGACAGGAUAUACAUGAGGAUCACCCAUGUGUGAGGCUAACAGUGCCAACUCUGGUAGAAGGGUCCCGGG [EX3 B.19] (Eterna round: R97, puzzle: Exclusion 3)
- apparent KD of MS2 coat protein (input ligand: FMN 200 uM): 0.269 µM
- apparent KD of MS2 coat protein (input ligand: none): 0.111 µM

Sequence: GAUUAUGCGAGCUUUAGGGACAUGAGGAUCACCCAUGUUCGUCUUAUUAGUCUGAGUGCACUGACAUACCUAAAUCU [JMF 85] (puzzle: Sensor v3, turn-off variant 1)
- apparent KD of MS2 coat protein [1]: 0.0154 µM
- apparent KD of MS2 coat protein [2]: 0.022 µM
- apparent KD of MS2 coat protein [3]: 0.0167 µM

Sequence: AGUUGGCGAGGAUAUACAUGAGGAUCACCCAUGUGAUAUUAAAGUGAGGAAAUGAAAAGUAGAAGGCGCUGACA [Mod of Mat 24 - Jieux - Exclusion 3] (Eterna round: R97, puzzle: Exclusion 3)
- apparent KD of MS2 coat protein (input ligand: FMN 200 uM): 0.662 µM
- apparent KD of MS2 coat protein (input ligand: none): 0.0473 µM
